Our source for the inhibition of the differentiation of human monocytes into MDSCs (rhIL-6 + rhGM-CSF, 7 days; BOC1 and Kd values is article PMC12401969, “The gut microbiota protein BOC1 exhibits immune checkpoint inhibitor-like activity by inhibiting myeloid-derived suppressor cell differentiation” (Frontiers in Immunology, 2025).

In assay [1] the target is CD200R1 on human monocytes, MoDCs and MDSCs (human (endogenous in primary monocytes, MoDCs, MDSCs)) (UniProt Q8TD46).
The target in assay [2] is T1, biotinylated CD200R1 (UniProt Q8TD46 29-265, biotin (site not stated)).
T1 construct: CD200R1 (CD200 receptor 1), soluble biotinylated protein; Held on streptavidin Donor beads in the AlphaLISA; also called CD200R1-(biot)
T1 sequence (looked up): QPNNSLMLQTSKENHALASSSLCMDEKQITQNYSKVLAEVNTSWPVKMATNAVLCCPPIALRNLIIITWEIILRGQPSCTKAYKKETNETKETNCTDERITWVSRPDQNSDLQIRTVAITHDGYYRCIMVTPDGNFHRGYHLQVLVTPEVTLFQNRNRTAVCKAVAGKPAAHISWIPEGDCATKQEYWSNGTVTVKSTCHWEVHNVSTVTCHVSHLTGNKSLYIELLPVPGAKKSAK
Briefly: AlphaScreen or HTRF; AlphaLISA; 3 nM CD200R1-(biot) with a dose response of His-tagged BOC1, its mutants, CD200 or P352 (0.1 to 300 nM by the legend, 0.1 to 100 nM by the table's footnote); fit 'One site-total' (GraphPad Prism). Background: In Alpha technology, singlet oxygen from a donor bead excites a nearby acceptor bead.

Assay [3] addresses T1, biotinylated CD200R1. Description: AlphaScreen or HTRF; AlphaLISA; 3 nM CD200R1-(biot) with a dose response (0.1 to 100 nM) of the His-tagged protein; fit 'One site-total' (GraphPad Prism).

Sequence of CD200R1 on human monocytes, MoDCs and MDSCs (human (endogenous in primary monocytes, MoDCs, MDSCs)) (Q8TD46 25-348): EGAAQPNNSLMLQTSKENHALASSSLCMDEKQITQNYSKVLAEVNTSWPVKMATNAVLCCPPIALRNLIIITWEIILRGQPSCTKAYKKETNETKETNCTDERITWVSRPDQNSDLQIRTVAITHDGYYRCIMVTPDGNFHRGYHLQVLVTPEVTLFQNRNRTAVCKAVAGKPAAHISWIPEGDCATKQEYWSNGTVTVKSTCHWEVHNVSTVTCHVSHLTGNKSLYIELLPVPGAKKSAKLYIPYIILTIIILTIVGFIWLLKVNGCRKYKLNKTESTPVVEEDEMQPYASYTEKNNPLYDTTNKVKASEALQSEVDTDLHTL

BOC1-His (natural protein): in assay [1], the inhibition of the differentiation of human monocytes into MDSCs (rhIL-6 + rhGM-CSF, 7 days; BOC1 at 1, 10, 50 nM), CD14+CD11b+CD33+HLA-DRlow cells by flow cytometry was 90%. The Kd with biotinylated CD200R1 [2] and with biotinylated CD200R1 [3] was 380 pM each time.
As for BOC1-m1 (Glu19) (natural protein), the Kd with biotinylated CD200R1 [2] amounted to 960 pM.
Regarding BOC1-m2 (Ser34) (natural protein), in the assay with biotinylated CD200R1 [2], the Kd is 2780 pM.

B1: CD200-His (ligand, UniProt P41217 31-232, looked up)
chain: QVQVVTQDEREQLYTPASLKCSLQNAQEALIVTWQKKKAVSPENMVTFSENHGVVIQPAYKDKINITQLGLQNSTITFWNITLEDEGCYMCLFNTFGFGKISGTACLTVYVQPIVSLHYKFSEDHLNITCSATARPAPMVFWKVPRSGIENSTVTLSHPNGTTSVTSILHIKDPKNQVGKEVICQVLHLGTVTDFKQTVNKG
notes: CD200 (OX-2), soluble His-tagged protein; Held on anti-6His Acceptor beads in the AlphaLISA; also called His-tagged CD200
For B1, the values for the Kd with biotinylated CD200R1 [2] (both partners purified) and with biotinylated CD200R1 [3] (both partners purified) were 950 ± 270 pM and 1560 ± 300 pM, respectively.

In general, Kd refers to the free concentration of one partner at which half of the binding sites on the other are occupied at equilibrium, for simple one-to-one binding. Read a low Kd as tighter binding.
